# Test results from patent US9725702B2, “Laccase from ganoderma lucidum capable of enhancing enzymatic degradation of lignocellulolytic biomass” (DANMARKS TEKNISKE UNIVERSITET, priority 2012, dated 2017).
# B1: LacGL1: Fungal laccase from Ganoderma lucidum CBS229.93 (SEQ ID NO: 5/9), recombinantly expressed in Pichia pastoris X-33 (protein, listed as Ganoderma lucidum)
# chain: GIGPKTDLTISNADVAPDGYTRAAVVVNGVFPAPLITGNKGDRFQLNVIDQMTNHTMLKSTSIHWHGFFQKGTNWADGPAFINQCPISSGHSFLYDFQVPDQAGTFWYHSHLSTQYCDGLRGPFVVYDPKDPLKKLYDIDDDSTVITLTDWYHVAARLGPRFPLGSDSTLINGLGRSTTNVTADLAVINVTQGKRYRFRLVSLSCDPNYTFSIDDHNMTVIEADGIETQPVTVNAIQIFSAQRYSFVLTANQTIDNYWIRANPNFGNVGFTDGINSAILRYAGADPVEPTTSQQTTQNLLNEVDLHPFVPKRTPGQPTQGGVDTAINMVFNFNGSNFFINNASFVPPTVPVLLQILSGAQAAQDLLPSGSVYTLPVNKSIELTFPATANAPGAPHPFHLHGHAFAVVRSAGSTVYNYDNPVWRDVVSTGTPAAGDNVTIRFQTDNPGPWFLHCHIDFHLEAGFAVVFAEDPTDTSLANPVPKAWSDLCPTYDALSVDDQ
# modifications: mat_peptide (1)..(499) Mature LacGL1 laccase (minus signal peptide)
# Key:
# Type in all cases: biochemical
# [1] = Michaelis constant (Km) of laccase for ABTS, Hanes-Wolf plot; conditions: substrate ABTS
# [2] = Laccase activity assay with ABTS; influence of pH and temperature
# Excerpt: FIG. 8. A surface response plot of the relative activity (U/mL) of the LacGL1 laccase expressed in Pichia pastoris as a function of pH and temperature. The effect of the pH and temperature on the LacGL1 laccase activity, expressed from P. pastoris, was modeled via randomized, full factorial, statistically designed experiment—MODDE program version 7.0.0.1 (Umetrics, Umeå, Sweden). The statistical design consisted of 12 experiments, including a triplicate repetition at the center point (pH 5 and 40° C.), using ABTS as a substrate. The influence of the temperature and pH was monitored between 25-55° C. and pH 4-6 (for 0.1 M citrate-phosphate buffer), respectively. The mixture with the ABTS and buffer at the defined pH value was incubated for 5 min. in a thermocycler set to a desired temperature and afterwards added to a previously pre-diluted enzyme in a microtiter plate which was incubated for 1 min. in a microtiter plate reader set to a desired temperature. After mixing the substrate and buffer with the enzyme, the initial rate of the product formation was measured as described above. The volumes and concentrations of enzyme, substrate, and buffer were identical as for the laccase activity assay.
# The laccase activity was measured based on a modified method of Ters et al. (2009). The laccase activity was defined as the amount of the enzyme required to oxidise 1 μmol of ABTS per minute at 25° C., and pH 4.7. The assay mixture contained: 0.1 M citrate-phosphate buffer (255 μL, pH 4.7), ABTS (5 μL, 4 mM (ABTS stock solution)), and pre-diluted laccase (5 μL) that ensured the linear range of Michaelis-Menten kinetics. The oxidation of ABTS was monitored at 420 nm (ε420=36800 M^−1cm^−1) for 2 min. in an Infinite 200 microtiter plate reader (Tecan, Salzburg, Austria). Laccase activity assays on the substrates: hydroquinone (248 nm), 2.6-dimethoxyphenol (470 nm), and guaiacol (436 nm) was done similarly with the substrate concentration as described in Table 2 using the following extinction coefficient values: 17.542 M^−1cm^−1, 35.645 M^−1cm^−1, and 6.400 M^−1cm^−1, respectively (Minussi et al. 2007). The data collection was monitored by the program Tecan i-control version 1.5.14.0 (Tecan, Salzburg, Austria). The calculated laccase activity was corrected by the absorbance of a control sample which contained: 0.1 M citrate-phosphate buffer (255 μL, pH 4.7), ABTS (5 μL, 4 mM), and 5 μL of distilled water instead of the enzyme. […]
# The effect of the pH and temperature on the LacGL1 laccase activity was determined with a statistically designed, randomized, full factorial experiment as described in FIG. 8. The relative laccase activity was calculated based on the LacGL1 activity at pH 4.7 and 25° C. […]
# [3] = Glucose release in LacGL1-cellulase (Cellic CTec1, CTec2) catalyzed hydrolysis of STEX SCB
# Experimental: FIG. 11. A graphical comparison of yields of released glucose over time in LacGL1-Cellic® CTec1 catalyzed hydrolysis STEX-SCB at different pH and temperatures. The cellulase preparation is Cellic® CTec1 (CC1) and laccase was Ganoderma lucidum LacGL1 expressed in Pichia pastoris X-33. CC1 and LacGL1 were added in E/S ratio of 0.064%, and 0.4% (w/w), respectively.
# FIG. 12. A graphical comparison of the yields of released glucose over time in LacGL1-Cellic® CTec2 catalyzed hydrolysis of STEX-SCB at different pH and temperatures. The cellulase preparation is Cellic® CTec2 (CC2) and laccase was Ganoderma lucidum LacGL1 expressed in Pichia pastoris X-33. […] and LacGL1 were added in E/S ratio of 0.064%, and 0.4% (w/w), respectively.
# 5% (w/v) dry matter of pretreated SCB (STEX SCB) was evaluated in 0.1 M citrate-phosphate buffer at pH 4.7 and 40° C. (optimal for the LacGL1 laccase) or pH 5.1 and 50° C. (optimal for the cellulase preparations), respectively. The commercially available cellulase cocktail preparations: Cellic® CTec1 and Cellic® CTec2 (0.064% Enzyme/Substrate ratio (E/S), w/w; Novozymes, Bagsværd, Denmark) were used with the combination of the LacGL1 laccase (0.4% E/S, w/w). The hydrolysis reactions were collected after 0, 1, 3, 5, 16, and 24 hours and stopped by incubation at 99° C. for 15 min. The samples were then centrifuged at 10.000 rpm for 2 min., the supernatants were filtered through 0.2 μm filter and the yields of released glucose were quantified using the D-glucose-HK kit (Megazyme, Denmark). The glucose yields released over time were corrected for the glucose content of the hydrolysis sample at time 0. The E/S dosage was based on the total protein concentration used. The protein quantification was performed using the Pierce BCA (BiCinchoninic Acid) protein assay kit microplate procedure according to manufacturer's instructions (Thermo Fisher Scientific, Rockford, US) using Bovine serum albumin (BSA) was used as a standard, as described before (Silva et al. 2011). The Cellic® CTec1 (CC1) and Cellic® CTec2 (CC2), cellulase preparations, are based on the Trichoderma reesei cellulase complex (exo-glucanase, endo-glucanase, and β-glucosidase activities) with additional β-glucosidase and glycoside hydrolase family 61 hydrolyse boosting proteins (Harris 2010). All determinations of the enzymatic hydrolysis samples were performed in duplicates.
# Release of glucose during cellulose hydrolysis of STEX SCB is enhanced by the addition of LacGL1 laccase in a dosage dependent manner (data not shown). The combined laccase plus cellulase treatment of STEX SCB were performed at two different conditions: Firstly, at […], 40° C. which is optimal for the LacGL1 laccase (as previously shown from MODDE pH-temp.-activity model, FIG. 8 and thermal stability plots, FIGS. 9, 10), which are slightly less optimal for cellulases; and secondly at 50° C. and pH 5.1, which are the golden standard conditions for optimal performance of CC1 and CC2. From the MODDE data, […]: the type of the cellulase preparation, the addition of LacGL1, the temperature, and the pH of the reaction (FIG. 11, 12). Overall, the highest rate of STEX SCB hydrolysis, considering all of the aforementioned factors, was obtained for the combination of LacGL1-Cellic® CTec2 at pH 5.1 and 50° C. […] The higher pH and temperature enhanced LacGL1-CC2 catalyzed hydrolysis by 12% (FIG. 12).
molecule,measurement,setting,value
B1,Km,[1]; laccase expressed in Ganoderma lucidum CBS229.93 (native),107 µM
same,Km,[1]; recombinantly expressed in Pichia pastoris,122 µM
same,laccase activity,"[2]; expressed by recombinant P. pastoris, after sterile filtration, ABTS, 25° C., pH 4.7",17.5 U/mL
same,temperature at which activity is highest,[2]; pH 4.7,40-50 °C
same,"temperature optimum (predicted, highest relative activity)","[2]; pH 4.7, ABTS, factorial model 25-55° C.",55 °C
same,pH optimum (highest relative activity),[2]; substrate ABTS,4.7
same,improvement in glucose yields over CC1 at pH 5.1 and 50° C.,"[3]; LacGL1-CC1 at pH 4.6, 40° C.",66%
same,improvement in glucose yields over LacGL1-CC1 at pH 5.1 and 50° C.,"[3]; LacGL1-CC1 at pH 4.6, 40° C.",48%
same,total glucose yield higher than CC2 alone,"[3]; LacGL1-Cellic CTec2 at pH 5.1, 50° C. vs CC2 alone at pH 4.6, 40° C.",27.5%
same,total glucose yield higher than CC2 alone,"[3]; LacGL1-Cellic CTec2 at pH 5.1, 50° C. vs CC2 alone under the same conditions",19%
same,enhancement of CC1 mediated-hydrolysis,"[3]; pH 4.6, 40° C.",30%
same,enhancement of LacGL1-CC2 catalyzed hydrolysis by higher pH and temperature,"[3]; pH 5.1, 50° C. vs pH 4.6, 40° C.",12%
